Laboratory results: patent US20230102344A1 (MARENGO THERAPEUTICS, published 2023)
Positions count from the first letter of the chain named. Numbers in names are those of the source.

T1: Human NKp30 (BKM0179) (human, UniProt O14931 19-135, limits assumed)
T1 sequence (looked up): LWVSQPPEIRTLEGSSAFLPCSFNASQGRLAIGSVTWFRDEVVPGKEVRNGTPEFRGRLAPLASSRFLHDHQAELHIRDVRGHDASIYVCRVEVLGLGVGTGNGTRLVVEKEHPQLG

B1: BJM0387 (bispecific antibody, not shown: a dimerising Fc or GST; large carriers)
heavy: QVQLVQSGAEVKKPGSSVKVSCKASGYSFTTYYIHWVRQAPGQGLEWMGWFFPGSGNIKYNEKFKGRVTITADTSTSTAYMELSSLRSEDTAVYYCAGSYYSYDVLDYWGQGTTVTVSSGGGGSGGGGSGGGGSGGGGSDIQMTQSPSFLSASVGDRVTITCKASQNVGINVVWHQQKPGKAPKALIYSSSHRYSGVPSRFSGSGSGTEFTLTISSLQPEDFATYFCQQFKSYPLTFGQGTKLEIKGGGGSQVQLVQSGAEVKKPGSSVKVSCKASGYTFTDYNMHWVRQAPGQGLEWIGYIYPYNGGTGYNQKFKSKATITADESTNTAYMELSSLRSEDTAVYYCARGRPAMDYWGQGTLVTVSS
light: DIQMTQSPSSLSASVGDRVTITCRASESVDNYGISFMNWFQQKPGKAPKLLIYAASNQGSGVPSRFSGSGSGTDFTLTISSLQPDDFATYYCQQSKEVPWTFGQGTKVEIK
notes: also called anti-CD33×TCRvβ antibody BJM0387
B2: BJM0898 (antibody, V domains shown)
VH: QVQLVQSGAEVKKPGSSVKVSCKASGTDFKLTYIHWVRQAPGQGLEWMGRIFPGSGNVKYNEKFKGRVTITADTSTSTAYMELSSLRSEDTAVYYCAVSYYSYDVLDYWGQGTTVTVSS
VL: DIQMTQSPSFLSASVGDRVTITCKASQNVDNRVAWYQQKPGKAPKALIYSSSHRYKGVPSRFSGSGSGTEFTLTISSLQPEDFATYFCQQFKSYPLTFGQGTKLEIK
B3: BJM0900 (antibody, V domains shown)
VH: B2 VH with T27H, K30R, F52S, P53A
VL: B2 VL with D30A, N31D
B4: BJM1078 (antibody, V domains shown)
VH: EIQLLESGGGLVQPGGSLRLSCAVSGFSITTTGYHWNWVRQAPGKGLEWVGYIYSSGSTSYNPSLKSRFTISRDTSKNTFYLQMNSLRAEDTAVYYCARGDWHYFDYWGQGTMVTVSS
VL: SSETTQPPSVSVSPGQTASITCSGEKLSDKYVHWYQQKPGQSPVMVIYENDRRPSGIPERFSGSNSGNTATLTISGTQAMDEADYFCQFWDSTNSAVFGGGTQLTVL
notes: only 'BJM0407 Parental'; also called BJM0407 Parental
B5: BJM1079 (scFv)
scFv: EIQLLESGGGLVQPGGSLRLSCAVSGFSITTTGYHWNWVRQAPGKGLEWVGYIYSSGSTSYNPSLKSRFTISRDTSKNTFYLQMNSLRAEDTAVYYCARGDWHYFDYWGQGTMVTVSSGGGGSGGGGSGGGGSGGGGSDSVTTQSPLSLPVTLGQPASISCSGEKLSDKYVHWYQQRPGQSPRMLIYENDRRPSGVPDRFSGSNSGNDATLKISRVEAEDVGVYFCQFWDSTNSAVFGGGTKVEIK
notes: only 'BJM0411 Parental'; also called BJM0411 Parental
B6: BKM0138 (scFv)
scFv: B5 scFv with N233A
notes: also called BJM0411 VL-N95A
B7: BKM0139 (scFv)
scFv: B5 scFv with D230A
notes: also called BJM0411 VL-D92A
B8: BKM0142 (scFv)
scFv: B5 scFv with N62A
notes: also called BJM0411 VH-N60A
B9: BKM0144 (scFv)
scFv: B5 scFv with N62A, D230A, N233A
notes: also called BJM0411 VH-N60A-VL-D92A-N95A
B10: BKM0140 (scFv)
scFv: EIQLLESGGGLVQPGGSLRLSCAVSGFSITTTGYHWNWVRQAPGKGLEWVGYIYSSGSTSYNPSLKSRFTISRDTSKNTFYLQMNSLRAEDTAVYYCARGDWHYFDYWGQGTMVTVSSGGGGSGGGGSGGGGSGGGGSSSETTQPPSVSVSPGQTASITCSGEKLSDKYVHWYQQKPGQSPVMVIYENDRRPSGIPERFSGSNSGNTATLTISGTQAMDEADYFCQFWASTNSAVFGGGTQLTVL
notes: also called BJM0407 VL-D92A
B11: BKM0141 (scFv)
scFv: B10 scFv with A229D, N232A
notes: also called BJM0407 VL-N95A
B12: BKM0143 (scFv)
scFv: B10 scFv with N62A, A229D
notes: also called BJM0407 VH-N60A
B13: BKM0145 (scFv)
scFv: B10 scFv with N62A, N232A
notes: also called BJM0407 VH-N60A-VL-D92A-N95A

Molecular target: T2, CD33 expressed on cells (MOLM-13, MV411, HL60) (human, UniProt P20138 18-364)
T2 construct: whole, on cells; also called CD33+ MOLM-13 cells; CD33-expressing MOLM-13 cells
T2 sequence (P20138 18-364): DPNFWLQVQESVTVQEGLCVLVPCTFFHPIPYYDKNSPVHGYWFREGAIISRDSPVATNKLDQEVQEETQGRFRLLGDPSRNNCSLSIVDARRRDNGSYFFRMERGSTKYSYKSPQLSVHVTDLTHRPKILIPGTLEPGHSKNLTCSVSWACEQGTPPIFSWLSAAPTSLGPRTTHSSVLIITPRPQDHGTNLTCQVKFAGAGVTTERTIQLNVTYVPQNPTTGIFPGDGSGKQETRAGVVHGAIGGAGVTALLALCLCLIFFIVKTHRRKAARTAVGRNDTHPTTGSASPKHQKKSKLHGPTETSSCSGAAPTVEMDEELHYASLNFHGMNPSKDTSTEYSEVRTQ
Assay: binding to CD33+ MOLM-13 cells (cell binding assay)

Does B1 bind?
Result: binds

Molecular target: T3, human TCRvβ (BIM0444) (human)
T3 construct: also called human TCRβvP; human TCRvβ 6-5
T3 sequence (A0A0K0K1A5 22-114): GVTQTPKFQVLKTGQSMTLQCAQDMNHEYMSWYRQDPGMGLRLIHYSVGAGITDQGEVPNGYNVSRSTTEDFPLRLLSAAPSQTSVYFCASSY
Assay: SPR (Biacore): antibody captured via anti-human Fc on CM5, BIM0444 as analyte, 1:1 fit

B2 was tested. Which Kd did it give?
The Kd was 11 nM.

How did the Kd turn out when B3 was run?
The Kd was 2.7 nM.

Molecular target: T1, Human NKp30 (BKM0179)
Assay: SPR (Biacore T200): human NKp30 BKM0179 captured via anti-mouse Fc on CM5, antibody as analyte, 1:1 fit

Which Kd does the source give for B4 here?
The Kd was 1.48 nM.

With B5 as the binder, how does the Kd read?
The Kd was 1.26 nM.

With B6 as the binder, how does the Kd read?
Its Kd is 3.2 nM.

With B7 as the binder, how does the Kd read?
The Kd was 3.2 nM.

Which Kd does the source give for B8 here?
Its Kd is 1.28 nM.

For B9, which Kd is on record?
The Kd was 6.4 nM.

Which Kd does the source give for B10 here?
The Kd was 3.3 nM.

How did the Kd turn out when B11 was run?
The Kd was 3 nM.

With B12 as the binder, how does the Kd read?
Its Kd is 1.45 nM.

B13 was tested. Which Kd did it give?
The Kd was 4.2 nM.
